{
  "source": "IntAct's records for PubMed 29039417",
  "parents": {"B1": {"name": "BBSome complex member BBS5 (Homo sapiens), Q8N3I7 (parent)", "chain": "MSVLDALWEDRDVRFDLSAQQMKTRPGEVLIDCLDSIEDTKGNNGDRGRLLVTNLRILWHSLALSRVNVSVGYNCILNITTRTANSKLRGQTEALYILTKCNSTRFEFIFTNLVPGSPRLFTSVMAVHRAYETSKMYRDFKLRSALIQNKQLRLLPQEHVYDKINGVWNLSSDQGNLGTFFITNVRIVWHANMNDSFNVSIPYLQIRSIKIRDSKFGLALVIESSQQSGGYVLGFKIDPVEKLQESVKEINSLHKVYSASPIFGVDYEMEEKPQPLEALTVEQIQDDVEIDSDGHTDAFVAYFADGNKQQDREPVFSEELGLAIEKLKDGFTLQGLWEVMS", "partner": "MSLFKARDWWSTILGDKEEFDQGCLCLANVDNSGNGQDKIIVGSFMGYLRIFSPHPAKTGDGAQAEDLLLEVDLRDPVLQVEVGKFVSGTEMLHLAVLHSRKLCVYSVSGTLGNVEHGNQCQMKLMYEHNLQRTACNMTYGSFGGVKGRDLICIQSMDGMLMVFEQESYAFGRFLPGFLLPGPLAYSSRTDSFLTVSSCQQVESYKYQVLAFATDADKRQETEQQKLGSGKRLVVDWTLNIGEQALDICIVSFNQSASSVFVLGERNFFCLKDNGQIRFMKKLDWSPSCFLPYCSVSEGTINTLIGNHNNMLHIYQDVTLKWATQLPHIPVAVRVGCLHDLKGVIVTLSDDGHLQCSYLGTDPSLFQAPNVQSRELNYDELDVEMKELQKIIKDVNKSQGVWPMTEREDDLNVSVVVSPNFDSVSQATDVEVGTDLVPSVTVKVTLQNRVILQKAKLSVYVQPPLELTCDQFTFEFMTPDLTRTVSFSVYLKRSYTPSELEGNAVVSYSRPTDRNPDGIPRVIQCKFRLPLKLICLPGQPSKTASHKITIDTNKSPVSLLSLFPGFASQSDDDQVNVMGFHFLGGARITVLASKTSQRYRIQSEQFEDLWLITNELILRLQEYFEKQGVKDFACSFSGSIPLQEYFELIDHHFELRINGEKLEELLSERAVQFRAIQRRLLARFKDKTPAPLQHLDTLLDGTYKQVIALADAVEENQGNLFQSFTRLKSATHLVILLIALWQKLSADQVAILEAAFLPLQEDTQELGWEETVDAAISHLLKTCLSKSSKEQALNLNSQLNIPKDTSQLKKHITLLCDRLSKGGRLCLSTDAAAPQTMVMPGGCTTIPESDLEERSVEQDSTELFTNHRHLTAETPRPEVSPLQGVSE"}},
  "data": [
    {"variants_of": "B1", "settings": "with pthb1_human BBS9, Q3SYG4", "values": [
      {"variant": "G321K", "effect of a mutation on the interaction": "with no effect"},
      {"variant": "G321E", "effect of a mutation on the interaction": "with no effect"},
      {"variant": "G321A", "effect of a mutation on the interaction": "with no effect"},
      {"variant": "L327E", "effect of a mutation on the interaction": "with no effect"},
      {"variant": "L327K", "effect of a mutation on the interaction": "with no effect"},
      {"variant": "L327A", "effect of a mutation on the interaction": "with no effect"},
      {"variant": "Q310E", "effect of a mutation on the interaction": "with no effect"},
      {"variant": "Q310A", "effect of a mutation on the interaction": "with no effect"},
      {"variant": "Q310K", "effect of a mutation on the interaction": "with no effect"},
      {"variant": "K308A", "effect of a mutation on the interaction": "with no effect"},
      {"variant": "K308E", "effect of a mutation on the interaction": "with no effect"},
      {"variant": "D329E", "effect of a mutation on the interaction": "with no effect"},
      {"variant": "D329A", "effect of a mutation on the interaction": "with no effect"},
      {"variant": "D329K", "effect of a mutation on the interaction": "with no effect"},
      {"variant": "P314E", "effect of a mutation on the interaction": "with no effect"},
      {"variant": "P314A", "effect of a mutation on the interaction": "with no effect"},
      {"variant": "P314K", "effect of a mutation on the interaction": "with no effect"},
      {"variant": "Q309E", "effect of a mutation on the interaction": "with no effect"},
      {"variant": "Q309A", "effect of a mutation on the interaction": "with no effect"},
      {"variant": "Q309K", "effect of a mutation on the interaction": "disrupting interaction strength"},
      {"variant": "G330A", "effect of a mutation on the interaction": "with no effect"},
      {"variant": "G330K", "effect of a mutation on the interaction": "with no effect"},
      {"variant": "G330E", "effect of a mutation on the interaction": "with no effect"},
      {"variant": "Y302A", "effect of a mutation on the interaction": "with no effect"},
      {"variant": "Y302E", "effect of a mutation on the interaction": "with no effect"},
      {"variant": "Y302K", "effect of a mutation on the interaction": "disrupting interaction strength"},
      {"variant": "K326E", "effect of a mutation on the interaction": "with no effect"},
      {"variant": "K326A", "effect of a mutation on the interaction": "with no effect"},
      {"variant": "L320A", "effect of a mutation on the interaction": "with no effect"},
      {"variant": "L320E", "effect of a mutation on the interaction": "with no effect"},
      {"variant": "L320K", "effect of a mutation on the interaction": "with no effect"},
      {"variant": "D311A", "effect of a mutation on the interaction": "with no effect"},
      {"variant": "D311K", "effect of a mutation on the interaction": "with no effect"},
      {"variant": "D311E", "effect of a mutation on the interaction": "with no effect"},
      {"variant": "A301K", "effect of a mutation on the interaction": "with no effect"},
      {"variant": "A301E", "effect of a mutation on the interaction": "with no effect"},
      {"variant": "D305A", "effect of a mutation on the interaction": "with no effect"},
      {"variant": "D305E", "effect of a mutation on the interaction": "with no effect"},
      {"variant": "D305K", "effect of a mutation on the interaction": "with no effect"},
      {"variant": "S317E", "effect of a mutation on the interaction": "with no effect"},
      {"variant": "S317K", "effect of a mutation on the interaction": "with no effect"},
      {"variant": "S317A", "effect of a mutation on the interaction": "with no effect"},
      {"variant": "T332E", "effect of a mutation on the interaction": "with no effect"},
      {"variant": "T332K", "effect of a mutation on the interaction": "with no effect"},
      {"variant": "T332A", "effect of a mutation on the interaction": "with no effect"},
      {"variant": "F303K", "effect of a mutation on the interaction": "with no effect"},
      {"variant": "F303E", "effect of a mutation on the interaction": "with no effect"},
      {"variant": "F303A", "effect of a mutation on the interaction": "disrupting interaction strength"},
      {"variant": "G306A", "effect of a mutation on the interaction": "with no effect"},
      {"variant": "G306K", "effect of a mutation on the interaction": "with no effect"},
      {"variant": "G306E", "effect of a mutation on the interaction": "with no effect"},
      {"variant": "L322A", "effect of a mutation on the interaction": "with no effect"},
      {"variant": "L322K", "effect of a mutation on the interaction": "disrupting interaction strength"},
      {"variant": "L322E", "effect of a mutation on the interaction": "with no effect"},
      {"variant": "F316A", "effect of a mutation on the interaction": "with no effect"},
      {"variant": "F316E", "effect of a mutation on the interaction": "with no effect"},
      {"variant": "F316K", "effect of a mutation on the interaction": "with no effect"},
      {"variant": "N307K", "effect of a mutation on the interaction": "with no effect"},
      {"variant": "N307E", "effect of a mutation on the interaction": "with no effect"},
      {"variant": "N307A", "effect of a mutation on the interaction": "with no effect"},
      {"variant": "V300K", "effect of a mutation on the interaction": "with no effect"},
      {"variant": "R312A", "effect of a mutation on the interaction": "with no effect"},
      {"variant": "R312K", "effect of a mutation on the interaction": "with no effect"},
      {"variant": "R312E", "effect of a mutation on the interaction": "with no effect"},
      {"variant": "A304K", "effect of a mutation on the interaction": "with no effect"},
      {"variant": "A304E", "effect of a mutation on the interaction": "with no effect"},
      {"variant": "V315A", "effect of a mutation on the interaction": "with no effect"},
      {"variant": "V315E", "effect of a mutation on the interaction": "with no effect"},
      {"variant": "V315K", "effect of a mutation on the interaction": "with no effect"},
      {"variant": "A323K", "effect of a mutation on the interaction": "with no effect"},
      {"variant": "A323E", "effect of a mutation on the interaction": "disrupting interaction strength"},
      {"variant": "K328E", "effect of a mutation on the interaction": "with no effect"},
      {"variant": "K328A", "effect of a mutation on the interaction": "with no effect"},
      {"variant": "E319K", "effect of a mutation on the interaction": "with no effect"},
      {"variant": "E319A", "effect of a mutation on the interaction": "with no effect"},
      {"variant": "E318K", "effect of a mutation on the interaction": "with no effect"},
      {"variant": "E318A", "effect of a mutation on the interaction": "with no effect"},
      {"variant": "E325K", "effect of a mutation on the interaction": "with no effect"},
      {"variant": "E325A", "effect of a mutation on the interaction": "with no effect"},
      {"variant": "I324E", "effect of a mutation on the interaction": "with no effect"},
      {"variant": "I324K", "effect of a mutation on the interaction": "with no effect"},
      {"variant": "I324A", "effect of a mutation on the interaction": "with no effect"},
      {"variant": "F331E", "effect of a mutation on the interaction": "disrupting interaction strength"},
      {"variant": "F331A", "effect of a mutation on the interaction": "with no effect"},
      {"variant": "F331K", "effect of a mutation on the interaction": "with no effect"},
      {"variant": "F331S", "effect of a mutation on the interaction": "disrupting interaction strength"},
      {"variant": "L333E", "effect of a mutation on the interaction": "with no effect"},
      {"variant": "L333A", "effect of a mutation on the interaction": "with no effect"},
      {"variant": "L333K", "effect of a mutation on the interaction": "with no effect"},
      {"variant": "E313K", "effect of a mutation on the interaction": "with no effect"},
      {"variant": "E313A", "effect of a mutation on the interaction": "with no effect"}
    ]}
  ]
}
